# B1: Polypeptide AF.ab9 (SEQ ID NO: 8) (peptide)
# peptide: PNSGGGGSYDPETGTWPQEIRLILNW
# notes: Chemically synthesised; 8-residue linker + 8-residue chignolin + 10-residue selected region
# Target: T1, pH 2.0-treated Fc (Fc region of human monoclonal IgG, acid-treated and neutralised) (human)
# T1 construct: Dialysed at pH 2.0 for 12 h, then neutralised; also called acid-treated Fc region
# Assay: SPR (Biacore T100), AF.ab9 immobilised on CM5, Fc region as analyte
binder,measurement,value
B1,binding response relative to that on the acid-treated (non-native) Fab region,≤ 0.01 fold

# Reference: US20190194249A1 (NATIONAL INSTITUTE OF ADVANCED INDUSTRIAL SCIENCE AND …, published 2019)
